Assay results as given in the Immune Epitope Database (IEDB).

Columns and labels:
Conditions in all cases: source organism: Vaccinia virus WR
HLA-A*29:02 [1] = experiment: IEDB peptide-MHC binding, purified MHC/competitive/radioactivity; filed as Kd, often an IC50 or EC50 that approximates it; ≥ and ≤ were set here for values at or beyond the usual limits of such assays
HLA-A*26:01 [2] = experiment: as above
HLA-A*01:01 [3] = experiment: IEDB peptide-MHC binding, purified MHC/competitive/radioactivity; ≥ and ≤ were set here for values at or beyond the usual limits of such assays
HLA-A*30:02 [4] = experiment: as above
HLA-A*33:01 [5] = experiment: IEDB peptide-MHC binding, purified MHC/competitive/radioactivity; filed as Kd, often an IC50 or EC50 that approximates it; ≥ and ≤ were set here for values at or beyond the usual limits of such assays
HLA-A*68:01 [6] = experiment: IEDB peptide-MHC binding, purified MHC/competitive/radioactivity; ≥ and ≤ were set here for values at or beyond the usual limits of such assays
HLA-A*11:01 = experiment: as above
HLA-A*03:01 = experiment: as above
HLA-A*31:01 [7] = experiment: as above
HLA-A*02:06 [8] = experiment: IEDB peptide-MHC binding, purified MHC/competitive/radioactivity; filed as Kd, often an IC50 or EC50 that approximates it; ≥ and ≤ were set here for values at or beyond the usual limits of such assays
HLA-A*68:02 [9] = experiment: as above
HLA-A*02:06 [10] = experiment: IEDB peptide-MHC binding, purified MHC/competitive/radioactivity; ≥ and ≤ were set here for values at or beyond the usual limits of such assays
HLA-A*02:03 = experiment: as above
HLA-A*02:02 = experiment: as above
HLA-B*53:01 [11] = experiment: IEDB peptide-MHC binding, purified MHC/competitive/radioactivity; filed as Kd, often an IC50 or EC50 that approximates it; ≥ and ≤ were set here for values at or beyond the usual limits of such assays
HLA-B*35:01 [12] = experiment: as above
HLA-B*51:01 [13] = experiment: as above
HLA-B*07:02 = experiment: IEDB peptide-MHC binding, purified MHC/competitive/radioactivity; ≥ and ≤ were set here for values at or beyond the usual limits of such assays
HLA-B*54:01 [14] = experiment: as above
HLA-A*68:01 [15] = experiment: IEDB peptide-MHC binding, purified MHC/competitive/radioactivity; filed as Kd, often an IC50 or EC50 that approximates it; ≥ and ≤ were set here for values at or beyond the usual limits of such assays
HLA-A*31:01 [16] = experiment: as above
HLA-B*44:02 = experiment: as above
HLA-B*44:03 = experiment: as above
HLA-B*40:01 [17] = experiment: as above
HLA-B*40:02 [18] = experiment: as above
HLA-B*45:01 = experiment: as above
HLA-B*18:01 [19] = experiment: IEDB peptide-MHC binding, purified MHC/competitive/radioactivity; ≥ and ≤ were set here for values at or beyond the usual limits of such assays
HLA-A*68:02 [20] = experiment: as above
HLA-A*29:02 [21] = experiment: as above
HLA-A*30:02 [22] = experiment: IEDB peptide-MHC binding, purified MHC/competitive/radioactivity; filed as Kd, often an IC50 or EC50 that approximates it; ≥ and ≤ were set here for values at or beyond the usual limits of such assays
HLA-A*26:01 [23] = experiment: IEDB peptide-MHC binding, purified MHC/competitive/radioactivity; ≥ and ≤ were set here for values at or beyond the usual limits of such assays
HLA-B*54:01 [24] = experiment: IEDB peptide-MHC binding, purified MHC/competitive/radioactivity; filed as Kd, often an IC50 or EC50 that approximates it; ≥ and ≤ were set here for values at or beyond the usual limits of such assays
HLA-B*18:01 [25] = experiment: as above
HLA-B*40:01 [26] = experiment: IEDB peptide-MHC binding, purified MHC/competitive/radioactivity; ≥ and ≤ were set here for values at or beyond the usual limits of such assays
HLA-B*40:02 [27] = experiment: as above
HLA-A*23:01 = experiment: as above
HLA-A*24:02 = experiment: as above
HLA-A*01:01 [28] = experiment: IEDB peptide-MHC binding, purified MHC/competitive/radioactivity; filed as Kd, often an IC50 or EC50 that approximates it; ≥ and ≤ were set here for values at or beyond the usual limits of such assays
HLA-B*35:01 [29] = experiment: IEDB peptide-MHC binding, purified MHC/competitive/radioactivity; ≥ and ≤ were set here for values at or beyond the usual limits of such assays
HLA-B*53:01 [30] = experiment: as above
HLA-B*51:01 [31] = experiment: as above
HLA-A*33:01 [32] = experiment: as above

VTDTNKFDNY
Kd (HLA-A*29:02 [1]): ≥ 50000 nM | Kd (HLA-A*26:01 [2]): ≥ 50000 nM | IC50 (HLA-A*01:01 [3]): 1.6 nM | IC50 (HLA-A*30:02 [4]): 256 nM

VSVNNVCHMY
Kd (HLA-A*29:02 [1]): 1080 nM | Kd (HLA-A*26:01 [2]): 4260 nM | IC50 (HLA-A*01:01 [3]): 130 nM | IC50 (HLA-A*30:02 [4]): 3.7 nM

KVMFVIRFK
Kd (HLA-A*33:01 [5]): 857 nM | IC50 (HLA-A*68:01 [6]): 30 nM | IC50 (HLA-A*11:01): 7.3 nM | IC50 (HLA-A*03:01): 1.4 nM | IC50 (HLA-A*31:01 [7]): 4.9 nM

SMHFYGWSL
Kd (HLA-A*02:06 [8]): 2040 nM

GLNDYLHSV
Kd (HLA-A*68:02 [9]): 2660 nM | IC50 (HLA-A*02:06 [10]): 3.9 nM | IC50 (HLA-A*02:03): 1.4 nM | IC50 (HLA-A*02:02): 0.74 nM

NQVKFYFNK
Kd (HLA-A*33:01 [5]): 822 nM | IC50 (HLA-A*68:01 [6]): 5.8 nM | IC50 (HLA-A*11:01): 2.2 nM | IC50 (HLA-A*03:01): 192 nM | IC50 (HLA-A*31:01 [7]): 15 nM

RPMSLRSTII
Kd (HLA-B*53:01 [11]): 1230 nM | Kd (HLA-B*35:01 [12]): ≥ 45900 nM | Kd (HLA-B*51:01 [13]): 9620 nM | IC50 (HLA-B*07:02): 0.43 nM | IC50 (HLA-B*54:01 [14]): 265 nM

GTIAGGVCYY
Kd (HLA-A*68:01 [15]): 11100 nM | Kd (HLA-A*33:01 [5]): ≥ 38600 nM | Kd (HLA-A*31:01 [16]): 8450 nM | IC50 (HLA-A*11:01): 4.5 nM | IC50 (HLA-A*03:01): 132 nM

AVFKDSFLRK
Kd (HLA-A*33:01 [5]): ≥ 42400 nM | Kd (HLA-A*31:01 [16]): 686 nM | IC50 (HLA-A*68:01 [6]): 47 nM | IC50 (HLA-A*11:01): 121 nM | IC50 (HLA-A*03:01): 8.2 nM

DELVDPINY
Kd (HLA-B*44:02): 14300 nM | Kd (HLA-B*44:03): 2670 nM | Kd (HLA-B*40:01 [17]): 529 nM | Kd (HLA-B*40:02 [18]): 13300 nM | Kd (HLA-B*45:01): 12400 nM | IC50 (HLA-B*18:01 [19]): 16 nM

FLNISWFYI
IC50 (HLA-A*02:06 [10]): 1 nM | IC50 (HLA-A*02:03): 0.33 nM | IC50 (HLA-A*68:02 [20]): 240 nM | IC50 (HLA-A*02:02): 0.17 nM

NLFDIPLLTV
IC50 (HLA-A*02:06 [10]): 1.5 nM | IC50 (HLA-A*02:03): 0.25 nM | IC50 (HLA-A*68:02 [20]): 8.1 nM | IC50 (HLA-A*02:02): 0.1 nM

FLSMLNLTKY
Kd (HLA-A*26:01 [2]): 7830 nM | IC50 (HLA-A*29:02 [21]): 154 nM | IC50 (HLA-A*01:01 [3]): 267 nM | IC50 (HLA-A*30:02 [4]): 500 nM

KVLHVTDTNK
Kd (HLA-A*68:01 [15]): 3020 nM | Kd (HLA-A*33:01 [5]): ≥ 50000 nM | IC50 (HLA-A*11:01): 10 nM | IC50 (HLA-A*03:01): 8.1 nM | IC50 (HLA-A*31:01 [7]): 466 nM

FTIDFKLKY
Kd (HLA-A*30:02 [22]): 1050 nM | IC50 (HLA-A*29:02 [21]): 1.4 nM | IC50 (HLA-A*26:01 [23]): 21 nM | IC50 (HLA-A*01:01 [3]): 60 nM

FGDSKEPVPY
Kd (HLA-A*29:02 [1]): 564 nM | Kd (HLA-A*26:01 [2]): 5680 nM | Kd (HLA-A*30:02 [22]): 8170 nM | IC50 (HLA-A*01:01 [3]): 137 nM

KPKPAVRFAI
Kd (HLA-B*53:01 [11]): ≥ 20500 nM | Kd (HLA-B*35:01 [12]): ≥ 36300 nM | Kd (HLA-B*51:01 [13]): ≥ 50000 nM | Kd (HLA-B*54:01 [24]): 680 nM | IC50 (HLA-B*07:02): 0.18 nM

KTKNFTIDFK
Kd (HLA-A*33:01 [5]): ≥ 40400 nM | IC50 (HLA-A*68:01 [6]): 144 nM | IC50 (HLA-A*11:01): 22 nM | IC50 (HLA-A*03:01): 11 nM | IC50 (HLA-A*31:01 [7]): 14 nM

QSDTVFDYY
Kd (HLA-A*29:02 [1]): ≥ 50000 nM | Kd (HLA-A*26:01 [2]): ≥ 50000 nM | Kd (HLA-A*30:02 [22]): 2950 nM | IC50 (HLA-A*01:01 [3]): 1 nM

TEYDDHINL
Kd (HLA-B*44:02): 913 nM | Kd (HLA-B*44:03): 1200 nM | Kd (HLA-B*18:01 [25]): 645 nM | Kd (HLA-B*45:01): 7790 nM | IC50 (HLA-B*40:01 [26]): 7.5 nM | IC50 (HLA-B*40:02 [27]): 108 nM

IVFNLPVSK
Kd (HLA-A*33:01 [5]): 3170 nM | IC50 (HLA-A*68:01 [6]): 5.4 nM | IC50 (HLA-A*11:01): 4.6 nM | IC50 (HLA-A*03:01): 2.2 nM | IC50 (HLA-A*31:01 [7]): 23 nM

QSITRSLIY
Kd (HLA-A*26:01 [2]): 4980 nM | IC50 (HLA-A*29:02 [21]): 295 nM | IC50 (HLA-A*01:01 [3]): 74 nM | IC50 (HLA-A*30:02 [4]): 291 nM

ILDDNLYKV
Kd (HLA-A*68:02 [9]): ≥ 48300 nM | IC50 (HLA-A*02:06 [10]): 8.9 nM | IC50 (HLA-A*02:03): 61 nM | IC50 (HLA-A*02:02): 4.5 nM

KLKIISNDYK
Kd (HLA-A*68:01 [15]): ≥ 50000 nM | Kd (HLA-A*33:01 [5]): ≥ 50000 nM | IC50 (HLA-A*11:01): 464 nM | IC50 (HLA-A*03:01): 4.5 nM | IC50 (HLA-A*31:01 [7]): 137 nM

RYRFAFLYLL
Kd (HLA-A*29:02 [1]): 16200 nM | IC50 (HLA-A*23:01): 41 nM | IC50 (HLA-A*24:02): 166 nM

SQSDTVFDY
Kd (HLA-A*29:02 [1]): 844 nM | Kd (HLA-A*26:01 [2]): 1860 nM | Kd (HLA-A*01:01 [28]): 3020 nM | IC50 (HLA-A*30:02 [4]): 2.3 nM

VTSSGAIYK
Kd (HLA-A*33:01 [5]): ≥ 21400 nM | Kd (HLA-A*31:01 [16]): 3970 nM | IC50 (HLA-A*68:01 [6]): 24 nM | IC50 (HLA-A*11:01): 3.1 nM | IC50 (HLA-A*03:01): 10 nM

HPRHYATVM
Kd (HLA-B*53:01 [11]): 3060 nM | Kd (HLA-B*51:01 [13]): 14700 nM | Kd (HLA-B*54:01 [24]): 4380 nM | IC50 (HLA-B*35:01 [29]): 63 nM | IC50 (HLA-B*07:02): 0.87 nM

VWINNSWKF
IC50 (HLA-A*23:01): 5.3 nM | IC50 (HLA-A*24:02): 6.4 nM | IC50 (HLA-A*29:02 [21]): 4.9 nM

MPAYIRNTL
IC50 (HLA-B*53:01 [30]): 49 nM | IC50 (HLA-B*35:01 [29]): 19 nM | IC50 (HLA-B*51:01 [31]): 461 nM | IC50 (HLA-B*07:02): 0.53 nM | IC50 (HLA-B*54:01 [14]): 3.4 nM

YLLVKWYRK
Kd (HLA-A*68:01 [15]): ≥ 50000 nM | IC50 (HLA-A*11:01): 3.6 nM | IC50 (HLA-A*33:01 [32]): 114 nM | IC50 (HLA-A*03:01): 5.6 nM | IC50 (HLA-A*31:01 [7]): 45 nM

DMCDIYLLY
IC50 (HLA-A*29:02 [21]): 89 nM | IC50 (HLA-A*26:01 [23]): 82 nM | IC50 (HLA-A*01:01 [3]): 28 nM | IC50 (HLA-A*30:02 [4]): 55 nM

FLTSVINRV
IC50 (HLA-A*02:06 [10]): 4.8 nM | IC50 (HLA-A*02:03): 1.4 nM | IC50 (HLA-A*68:02 [20]): 0.42 nM | IC50 (HLA-A*02:02): 0.11 nM
